T1: His-TgROP9 (Toxoplasma gondii, UniProt S8F3X8 1-353)
T1 chain: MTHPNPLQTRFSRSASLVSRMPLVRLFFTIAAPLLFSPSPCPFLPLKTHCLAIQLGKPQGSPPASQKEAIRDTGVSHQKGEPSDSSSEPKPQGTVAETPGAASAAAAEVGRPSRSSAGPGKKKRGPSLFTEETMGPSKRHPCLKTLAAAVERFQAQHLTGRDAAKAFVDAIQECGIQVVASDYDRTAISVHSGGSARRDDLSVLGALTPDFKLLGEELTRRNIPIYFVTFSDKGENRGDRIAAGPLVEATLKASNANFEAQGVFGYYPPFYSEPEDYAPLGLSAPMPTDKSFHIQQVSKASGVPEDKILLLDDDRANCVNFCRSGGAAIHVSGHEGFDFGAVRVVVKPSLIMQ

T2: His-TgMIC3 (Toxoplasma gondii, UniProt A0A7J6KDB0 27-383)
T2 chain: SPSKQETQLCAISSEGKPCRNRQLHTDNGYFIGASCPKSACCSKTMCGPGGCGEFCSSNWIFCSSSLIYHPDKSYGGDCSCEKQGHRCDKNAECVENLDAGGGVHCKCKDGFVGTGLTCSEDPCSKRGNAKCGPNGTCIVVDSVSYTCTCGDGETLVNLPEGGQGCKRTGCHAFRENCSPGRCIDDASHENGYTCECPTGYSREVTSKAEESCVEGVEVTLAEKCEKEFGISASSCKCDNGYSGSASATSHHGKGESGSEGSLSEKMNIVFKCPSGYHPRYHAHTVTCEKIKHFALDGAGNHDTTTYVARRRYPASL

T3: His-TgSAG2 (Toxoplasma gondii)
T3 chain: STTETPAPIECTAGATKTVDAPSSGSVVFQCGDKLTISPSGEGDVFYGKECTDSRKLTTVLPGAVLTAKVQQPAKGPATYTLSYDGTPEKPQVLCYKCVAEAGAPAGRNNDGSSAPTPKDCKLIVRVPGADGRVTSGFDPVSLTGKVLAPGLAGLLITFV

B1: GST-tagged recombinant sortilin protein (natural protein)
chain: MYTSRTPHGGLRRWPLSRSSVSAVASRVLSRSVAFHRRLASFLLSRKKTPLCALSSRPSGLQASSGVQTVTMAHSFARGRPPAAGRTLAVFLAFLAVLSPSLLPEFFSEDAQKRESSVLVANAASYANKKVSVSEVSFDSHIEDIQWCGTDHRTILLKTRRGRLYRSQDGGKSWTEITDLLKSSEAATGTVAVDSIIVSPVDKRVVLIVGSKRNHFISEDSAATFRRLKYKNTIHNFHFHPTRPKYAILSTWTDACYSGSGTASRAQSQQDCNHQLFYTRDLGRSFKLVADYVVQFSWGDKKLGNTDHIFFTQHRGRSGDQPRYGGWSKNVDLMYTPDFGATITRLVYRGNKFLLSNGYFFVAKVKDAAKQTVSLLVSTDGGKSFQMAKLPVEIEERSYTVLDTSEDAIMLHVNHGHDNKGDTGNVYISDAKGVRYSLSLPNNIRTSTGECEFDKVLSLEGVYLANFKDSVDSSASVDGGQQGDLEKLEEEIEEEAEGVQVDLEKKHKSVATRSRQEEVIRTVISFDKGGVWSYLKAPKVDSRGQKIDCPPDRCWLHLNGITRFSDFAPFYSVENAVGIIMGTGNVGSYLRPEKDEANTYLSRDGGVSWIEAHKGAFIYEMGDHGGLLVMADDTKKTNQVVFSWNEGQSWYDFELGAAPLFVDNIVIEPNASSVEFLLYGKREQDSAGVLFHLDFNALNQQQCKGIWAADSVSSDYETWSPSDGRAGGERCILGKHITYTRRKQTSECFNGRDFDRPKVSKVCPCTMEDYECEFGFTRAIGSTQCVATDAAAAAAATATGLAQFADESDAAAAAACTSSSFFYTSAYRKVPGDVCEGGWMPEKVAVPCPAHSPVSRGGKTVLLLLLFIVVVMVVINYLAKTGRLKKFFRNAGFDSFANVSYGLVGASAGGPGGWLDQEAGESRRGEELGERSKYEPELGFIEAEQDENEEDAPTLMNYGNAAGGQRTSGMSSRSPKPTEDFELDDSRPLFPSHVSSRETQGSSGLHPRSTSTENEPIPRLAPPRFDEDNVELL

Legend:
[1] = target: T4, GST-Vps10 (Vps10 subdomain of T. gondii sortilin) (Toxoplasma gondii, UniProt A0A7J6KCY2); assay: bio-layer interferometry, biotinylated GST-Vps10 on SSA sensor; format: binding; settings: AF38469 at 100-500 nM diluted in DMSO; PBS, DMSO as negative control
T4 construct: gene TGRH88_014830; Vps10 subdomain (160-667 aa) of 1033-aa sortilin; GST-tagged from pGEX-4T-1, E. coli BL21 (DE3); tag kept; biotinylated with NHS-PEG12-biotin

[2] = target: T1, His-TgROP9; assay: BLI
[3] = target: T2, His-TgMIC3; assay: BLI
[4] = target: T3, His-TgSAG2; assay: BLI

| Molecule | bio-layer interferometry, biotinylated GST-Vps10 on SSA sensor [1] | Kd [2] [nM] | Kd [3] [nM] | Kd [4] [nM] |
| --- | --- | --- | --- | --- |
| Cc1cccc(NC(=O)c2ccc(C(F)(F)F)cc2C(=O)O)n1 [AF38469] | only the Vps10 subdomain could bind to AF38469 with high affinity |  |  |  |
| B1 |  | 0.963 | 0.847 | 915 |

From publication PMC10910794, “Toxoplasma sortilin interacts with secretory proteins and it is critical for parasite proliferation” (Parasites & Vectors, 2024)
